Experimental data: US20250333512A1 (PLANTVAX, published 2025)

Experiments:
Assay in all cases: cell-based or functional assay
[1] = target: chimeric receptor containing a rhesus macaque FcγRIII ectodomain and the CD3ζ intracellular signaling domain (rhesus macaque, UniProt A3RFZ7 21-206)
[2] = target: chimeric receptor containing a rhesus macaque FcγRI ectodomain and the CD3ζ intracellular signaling domain (rhesus macaque, UniProt A0A7G8YX43 16-293)
[3] = target: chimeric receptor containing a rhesus macaque FcγRIIB ectodomain and the CD3ζ intracellular signaling domain (rhesus macaque, UniProt A0A7G8YX88 43-217)
[4] = target: chimeric receptor containing a rhesus macaque FcγRIIA ectodomain and the CD3ζ intracellular signaling domain (rhesus macaque, UniProt A0A7G8YX83 34-216)

chimeric receptor containing a rhesus macaque FcγRIII ectodomain and the CD3ζ intracellular signaling domain, sequence (A3RFZ7 whole entry, change not shown, the tested form may be a part): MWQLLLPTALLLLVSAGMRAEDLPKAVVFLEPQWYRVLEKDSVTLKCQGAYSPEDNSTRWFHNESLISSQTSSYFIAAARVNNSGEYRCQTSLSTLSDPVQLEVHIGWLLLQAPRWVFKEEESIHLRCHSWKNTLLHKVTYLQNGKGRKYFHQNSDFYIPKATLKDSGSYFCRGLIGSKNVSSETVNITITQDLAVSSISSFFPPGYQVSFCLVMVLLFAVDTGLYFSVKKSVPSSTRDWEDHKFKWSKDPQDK

B1: Nb PGT121 (antibody)
heavy: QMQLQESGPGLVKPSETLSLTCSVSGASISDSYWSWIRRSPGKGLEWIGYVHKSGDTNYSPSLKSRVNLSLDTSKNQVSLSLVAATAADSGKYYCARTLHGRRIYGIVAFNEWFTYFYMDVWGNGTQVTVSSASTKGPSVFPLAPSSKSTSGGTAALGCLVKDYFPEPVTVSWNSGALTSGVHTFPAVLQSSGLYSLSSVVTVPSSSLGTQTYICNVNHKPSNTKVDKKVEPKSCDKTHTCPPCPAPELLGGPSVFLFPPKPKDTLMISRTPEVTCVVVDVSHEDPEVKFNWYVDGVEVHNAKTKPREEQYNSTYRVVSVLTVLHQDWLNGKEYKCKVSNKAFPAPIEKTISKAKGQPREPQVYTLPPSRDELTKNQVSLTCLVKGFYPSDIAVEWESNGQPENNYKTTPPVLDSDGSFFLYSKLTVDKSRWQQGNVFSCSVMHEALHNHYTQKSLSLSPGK
light: SDISVAPGETARISCGEKSLGSRAVQWYQHRAGQAPSLIIYNNQDRPSGIPERFSGSPDSPFGTTATLTITSVEAGDEADYYCHIWDSRVPTKWVFGGGTTLTVLRTVAAPSVFIFPPSDEQLKSGTASVVCLLNNFYPREAKVQWKVDNALQSGNSQESVTEQDSKDSTYSLSSTLTLSKADYEKHKVYACEVTHQGLSSPVTKSFNRGEC
modifications: Plant-type N-glycan at heavy-chain N312 (EU N297); letters unchanged.
With B1 as the binder, how does the “EC50 (IL-2 ELISA)” value [1] read?
Its value is over 50 µg/mL.

And the “EC50 (IL-2 ELISA)” value [2]?
Its value is about 0.71 µg/mL.

And the “EC50 (IL-2 ELISA)” value [3]?
The value was over 50 µg/mL.

And the “EC50 (IL-2 ELISA)” value [4]?
Its value is over 50 µg/mL.

B2: Nb PGT121-LS (antibody)
heavy: QMQLQESGPGLVKPSETLSLTCSVSGASISDSYWSWIRRSPGKGLEWIGYVHKSGDTNYSPSLKSRVNLSLDTSKNQVSLSLVAATAADSGKYYCARTLHGRRIYGIVAFNEWFTYFYMDVWGNGTQVTVSSASTKGPSVFPLAPSSKSTSGGTAALGCLVKDYFPEPVTVSWNSGALTSGVHTFPAVLQSSGLYSLSSVVTVPSSSLGTQTYICNVNHKPSNTKVDKKVEPKSCDKTHTCPPCPAPELLGGPSVFLFPPKPKDTLMISRTPEVTCVVVDVSHEDPEVKFNWYVDGVEVHNAKTKPREEQYNSTYRVVSVLTVLHQDWLNGKEYKCKVSNKAFPAPIEKTISKAKGQPREPQVYTLPPSRDELTKNQVSLTCLVKGFYPSDIAVEWESNGQPENNYKTTPPVLDSDGSFFLYSKLTVDKSRWQQGNVFSCSVLHEALHSHYTQKSLSLSPGK
light: B1 light
modifications: Plant-type N-glycan (partly unoccupied) at heavy-chain N312 (EU N297); letters unchanged.
How did the “EC50 (IL-2 ELISA)” value [1] turn out when B2 was run?
Its value is over 50 µg/mL.

What about the “EC50 (IL-2 ELISA)” value [2] of the same binder?
The value was 1.2 µg/mL.

And the “EC50 (IL-2 ELISA)” value [3]?
Its value is over 50 µg/mL.

And the “EC50 (IL-2 ELISA)” value [4]?
The value was over 50 µg/mL.
